Test results from US20030013152A1 (University of Texas, published 2003).
One block for each binder: values may come before it.

Tests used:
[1] = target: T1, recombinant histidine-tagged human ALF (TFIIAα/β-like factor) polypeptide, residues Val7 to Trp478 (human, UniProt Q9UNN4 7-478); test: electrophoretic mobility shift assay; both subunits stand in one complex with TBP and DNA
T1 construct: 479 amino acid polypeptide expressed in E. coli from pRSET-ALF, purified under denaturing conditions on Ni-NTA and renatured; migrates at 69 kD; also called p69; p69 (ALF)
T1 sequence: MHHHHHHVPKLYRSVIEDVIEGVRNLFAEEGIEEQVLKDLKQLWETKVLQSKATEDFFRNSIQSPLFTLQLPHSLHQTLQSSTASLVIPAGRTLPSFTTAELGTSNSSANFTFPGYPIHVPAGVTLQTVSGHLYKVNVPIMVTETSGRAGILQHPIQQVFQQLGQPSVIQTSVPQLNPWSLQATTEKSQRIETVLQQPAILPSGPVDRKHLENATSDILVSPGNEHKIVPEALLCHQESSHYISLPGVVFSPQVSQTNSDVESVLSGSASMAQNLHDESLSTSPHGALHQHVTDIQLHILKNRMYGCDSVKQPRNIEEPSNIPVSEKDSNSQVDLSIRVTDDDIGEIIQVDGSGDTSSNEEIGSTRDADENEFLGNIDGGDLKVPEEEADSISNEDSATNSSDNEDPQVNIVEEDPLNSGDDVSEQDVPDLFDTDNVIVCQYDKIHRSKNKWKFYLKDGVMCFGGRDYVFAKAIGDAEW
Protocol: (§1) Mobility shift assays were performed using 10 fmol of a [γ-³²P] ATP kinase-labeled TATA-containing an oligonucleotide that spans nucleotides −40 to −16 of the Adenovirus Major Late (AdML) promoter. Binding reactions (25 μl final volume) were performed in 10 mM HEPES (pH 7.9), 2% (wt/vol) PEG-8000, 60 mM KCl, 5 mM DTT, 0.2 mM EDTA, 5 mM ammonium sulfate, 4 mM MgC1₂, and 8% glycerol. Recombinant rat p55 (30 ng; 29 nM), rat p12 (1.1 ug; 3.5 uM), human ALF (180 ng; 137 nM) and human TBP (125 ng; 133 nM) were added to reactions as indicated. Reactions were incubated for 30 minutes at room temperature, and complexes are separated on native 5% polyacrylamide gels containing 0.5×TBE and 5% glycerol. Competition experiments contain either cold AdML TATA or SP1 oligonucleotides, and antibody supershift reactions contain 2-4 μl of rabbit polyclonal antiserum raised against the 55 kD hTFIIAα/β polypeptide (3).
(§2) The activity of polypeptides was tested in electrophoretic mobility shift assays under conditions in which TATA-Binding Protein (TBP) alone is unable to bind DNA (FIG. 12B, lane 1). The presence of TFIIAα/β (p55) and TFIIAγ (p12) stabilized the TBP-DNA interaction via TFIIAα/β/γ-TBP-DNA complex formation (lane 2). Likewise, the recombinant ALF (p69) polypeptide, in conjunction with the TFIIAγ (p12) subunit, was able to form ALF/γ-TBP-DNA complexes (lane 5). […]

[2] = target: T2, recombinant rat TFIIAα/β (p55) subunit (rat, UniProt O08949 1-377); test: as above
T2 construct: also called rat p55
T2 sequence (looked up): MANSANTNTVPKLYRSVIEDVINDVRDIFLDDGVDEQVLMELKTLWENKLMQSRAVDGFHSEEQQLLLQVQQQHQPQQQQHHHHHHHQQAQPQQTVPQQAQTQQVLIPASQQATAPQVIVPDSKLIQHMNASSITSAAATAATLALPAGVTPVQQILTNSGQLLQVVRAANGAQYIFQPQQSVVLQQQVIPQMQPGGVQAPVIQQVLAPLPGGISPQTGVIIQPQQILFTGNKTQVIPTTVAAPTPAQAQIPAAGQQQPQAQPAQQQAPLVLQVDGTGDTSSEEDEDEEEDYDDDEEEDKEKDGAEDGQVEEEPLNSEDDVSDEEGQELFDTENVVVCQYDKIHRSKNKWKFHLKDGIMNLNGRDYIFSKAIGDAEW
Protocol: as §1, §2

[3] = target: T3, ALF/γ: recombinant human ALF (p69) together with recombinant rat TFIIAγ (p12) (human; rat, UniProt O08950 1-109); test: electrophoretic mobility shift assay on labelled AdML TATA oligonucleotide, under conditions in which TBP alone does not bind DNA
T3 construct: also called ALF (p69) and TFIIAγ (p12)
T3 sequence 1: T1 sequence
T3 sequence 2: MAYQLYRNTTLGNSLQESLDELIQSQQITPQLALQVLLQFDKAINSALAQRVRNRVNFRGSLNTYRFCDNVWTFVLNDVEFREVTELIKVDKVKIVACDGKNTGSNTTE
Protocol: as §1, §2

[4] = target: T4, TFIIAα/β/γ: recombinant rat TFIIAα/β (p55) together with recombinant rat TFIIAγ (p12) (rat, UniProt O08949 1-377; O08950 1-109); test: as above
T4 construct: also called TFIIAα/β (p55) and TFIIAγ (p12)
T4 sequence (looked up) 1: T2 sequence (looked up)
T4 sequence (looked up) 2: T3 sequence 2
Protocol: as §1, §2

- binding result [1]: binds
- binding result [2]: binds
B1: recombinant rat TFIIAγ (p12) subunit (other, UniProt O08950 1-109, looked up)
chain: T3 sequence 2
notes: also called rat p12; p12 (TFIIAγ)

- binding result [3]: binds
- binding result [4]: binds
B2: recombinant histidine-tagged human TATA binding protein (TBP) (other, UniProt P20226 1-339, looked up)
chain: MDQNNSLPPYAQGLASPQGAMTPGIPIFSPMMPYGTGLTPQPIQNTNSLSILEEQQRQQQQQQQQQQQQQQQQQQQQQQQQQQQQQQQQQQQQQQAVAAAAVQQSTSQQATQGTSGQAPQLFHSQTLTTAPLPGTTPLYPSPMTPMTPITPATPASESSGIVPQLQNIVSTVNLGCKLDLKTIALRARNAEYNPKRFAAVIMRIREPRTTALIFSSGKMVCTGAKSEEQSRLAARKYARVVQKLGFPAKFLDFKIQNMVGSCDVKFPIRLEGLVLTHQQFSSYEPELFPGLIYRMIKPRIVLLIFVSGKVVLTGAKVRAEIYEAFENIYPILKGFRKTT
notes: In the mobility shift assay TBP stood together with a labelled AdML TATA oligonucleotide (-40 to -16); also called human TBP; not shown: histidine tag
